US20110039770A1, “INHIBITORS OF PROTEIN KINASE C ISOFORMS AND USES THEREOF” (PHARMAGAP INC., priority 2005, published 2011)
Where a SMILES comes first, the peptide text is derived from it. [ ]: non-standard residue; d: D form.

Experiments:
[1] = molecular target: PKC-βI (Homo sapiens, UniProt P05771); assay: ELISA-based competitive binding assay with purified PKC isoform; set-up: key to Affinity for PKC isoform βI: —: no detectable affinity; Low to very low affinity at 10X or 20X or both PRE concentrations in at least one cell line in the cell extract assay; Low affinity in purified isoform assay.; Moderate affinity at 10X or 20X or both PRE concentrations in at least one cell line in the cell extract assay.; High affinity at 10X or 20X or both PRE concentrations in at least one cell line in the cell extract assay; High affinity in purified isoform assay; conditions: for Affinity for PKC isoform βI: Purified isoform
Chain of PKC-βI (P05771 whole entry, canonical isoform): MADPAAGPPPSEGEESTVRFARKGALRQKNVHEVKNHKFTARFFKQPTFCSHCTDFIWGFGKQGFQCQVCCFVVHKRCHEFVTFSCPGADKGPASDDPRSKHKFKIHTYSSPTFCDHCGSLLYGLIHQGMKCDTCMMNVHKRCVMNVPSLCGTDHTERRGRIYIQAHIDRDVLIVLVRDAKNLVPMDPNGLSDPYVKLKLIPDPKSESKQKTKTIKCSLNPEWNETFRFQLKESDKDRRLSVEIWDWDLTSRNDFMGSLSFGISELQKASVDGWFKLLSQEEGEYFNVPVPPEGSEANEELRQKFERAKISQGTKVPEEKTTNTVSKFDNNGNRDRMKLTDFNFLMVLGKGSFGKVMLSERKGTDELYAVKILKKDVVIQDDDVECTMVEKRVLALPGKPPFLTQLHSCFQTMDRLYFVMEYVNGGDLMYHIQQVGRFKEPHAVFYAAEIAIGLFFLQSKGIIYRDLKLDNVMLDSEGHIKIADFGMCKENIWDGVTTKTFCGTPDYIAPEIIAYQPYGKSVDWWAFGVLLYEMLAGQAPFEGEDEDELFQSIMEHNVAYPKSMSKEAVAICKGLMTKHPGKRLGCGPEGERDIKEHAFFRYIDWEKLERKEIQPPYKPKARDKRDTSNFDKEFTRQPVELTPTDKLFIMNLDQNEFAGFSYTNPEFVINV
Protocol: Peptides PRE 1, 2, 3, 4, 5, 6, 7, 8, 9, 10, 11, 12 and 13 (see Table 3) were tested for their ability to interfere with binding of PKC isoform-specific antibodies to their target PKC isoforms using a competitive binding assay and purified PKC isoforms.
Procedure: Competitive binding was assessed using a 96 well plate ELISA-based assay as described below.
Greiner 96 well ELISA plates were coated with the appropriate PKC isoform diluted in PBSN (PBS with Calcium/Magnesium+0.05% Sodium azide w/w). 50 μL/well at 250 ng/mL was used. Control wells contained PBSN only. Plates were incubated overnight at 4° C.
The plates were washed 3 times with 200 μL of dH2O per well, then 100 μL of blocking solution was added per well and the plate incubated for 1 h at 37° C. The washing steps with dH2O were repeated and 50 μL of the appropriate PRE solution (PRE stock solution [20 mM in DMSO] diluted in PBSN) was added and the plate incubated for 1 h at room temperature.
After incubation, 5 μL of 1.1:400 anti-PKC (isoform specific antibody) was added per well (to provide a final concentration of 1:4000). For PKC-epsilon, 1.1:800 dilution was used and for PKC-zeta a 1.1:100 dilution was used due to high and low binding affinity, respectively. The plates were then incubated 1 h at room temperature, followed by washing with dH2O as described above.
50 μL of 1:1000 dilution of Alkaline Phosphatase (AP) conjugated antibody (anti-rabbit for all except zeta, which was anti-goat) was then added and the plate incubated for 1 h at room temperature. Washing with dH2O was then repeated. Finally, 100 μL of pNPP solution in pNPP buffer (2 mM MgCl2, 100 mM Sodium bicarbonate in water, pH 9.8) was added to all wells and incubated for 8 minutes for α, βI, βII ε, and ζ, or for 15-20 mins for δ (until sufficient coloration is observed). The reaction was stopped by addition of Stop solution (2N NaOH) and the absorbance at 405 nm was read on a Galaxy Plate reader.
Controls were PKC without PRE; blank controls, and controls containing the final concentrations of DMSO used for solubilizing the PREs. The non-specific binding capacity related to DMSO was also measured.
The antibodies used were as follows: anti-PKC α (Cat. No. SC-208); anti-PKC βI (Cat. No. SC-209); anti-PKC βII (Cat. No. SC-210); anti-PKC δ (Cat. No. SC-213); anti-PKC ε (Cat. No. SC-214); anti-PKC ζ (Cat. No. SC-216-G) (all from Santa Cruz Biotechnology, Inc.). The AP-conjugated antibodies were obtained from Jackson Immuno Research Laboratories (West Grove, Pa.).
Calculations: The OD values measured at 405 nm represent the free PKC coated per well.
OD405 PKC alone−Blank OD405 of each sample=OD405 coated isoform
(OD405 of sample X/OD405 coated isoform)×100=% n that represents the percentage of X binding compared to control.
100-% n measures the relative binding capacity of X towards the tested isoform.
The apparent binding capacity of the DMSO samples was then subtracted from X binding capacity.
All measurements were made in triplicate and the values in the table represent the averaged calculated binding capacity values after subtraction of the DMSO apparent binding capacity (averaged from 12 values, respectively 10.80, 11.20 and 16.40 corresponding to the concentrations of DMSO used to dilute the […] at 200, 100 and 50 μM respectively). The results allow for quantitative comparison of the binding capacity of each PRE towards an individual isoform within each table, but not among isoforms due to differences in sensitivity of the specific antibodies toward the secondary antibody. This applies particularly to PKC-delta. As noted above, the colour development duration was increased 2-3 times and, as a result, the OD405 measurements may be overestimated for this isoform.

[2] = molecular target: PKC-δ (Homo sapiens, UniProt Q05655); assay: Competitive binding assay using cell extracts (Western blot); set-up: cytoplasmic extracts from different cell lines expressing appropriate PKC isoforms; endogenous in cells; host or cells: H661, MDAMB231, LS180, T24; key: —: no detectable affinity; Low to very low affinity at 10X or 20X or both PRE concentrations in at least one cell line in the cell extract assay; Low affinity in purified isoform assay.; Moderate affinity at 10X or 20X or both PRE concentrations in at least one cell line in the cell extract assay.; High affinity at 10X or 20X or both PRE concentrations in at least one cell line in the cell extract assay; High affinity in purified isoform assay; conditions: Cell extract; PRE 10X or 20X antibody concentration
Chain of PKC-δ (Q05655 whole entry, canonical isoform): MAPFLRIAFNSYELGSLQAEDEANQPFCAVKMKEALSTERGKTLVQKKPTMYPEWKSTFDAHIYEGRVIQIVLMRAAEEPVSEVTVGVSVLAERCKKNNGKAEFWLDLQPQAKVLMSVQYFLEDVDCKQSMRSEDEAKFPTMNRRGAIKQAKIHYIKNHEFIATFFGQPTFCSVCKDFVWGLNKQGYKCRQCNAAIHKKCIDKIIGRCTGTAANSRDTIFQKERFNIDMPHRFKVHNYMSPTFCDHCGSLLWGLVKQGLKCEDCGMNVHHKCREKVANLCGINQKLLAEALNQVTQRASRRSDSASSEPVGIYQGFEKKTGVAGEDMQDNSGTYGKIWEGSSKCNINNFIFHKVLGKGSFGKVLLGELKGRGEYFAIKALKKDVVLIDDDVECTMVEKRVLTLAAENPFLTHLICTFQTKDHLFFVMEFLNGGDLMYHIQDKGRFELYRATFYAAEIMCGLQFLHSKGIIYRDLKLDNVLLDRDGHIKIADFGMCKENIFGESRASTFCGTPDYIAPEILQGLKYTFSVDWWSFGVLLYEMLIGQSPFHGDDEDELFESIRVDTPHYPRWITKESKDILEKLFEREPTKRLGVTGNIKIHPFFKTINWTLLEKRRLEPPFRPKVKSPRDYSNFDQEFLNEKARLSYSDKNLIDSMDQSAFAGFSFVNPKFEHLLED
Protocol: Binding efficiency and specificity of the peptides PRE 2, 3, 4, 5, 6, 7, 8, 9, 10, 11, 12 and 13 (see Table 4) was also tested using cytoplasmic extracts from different cell lines expressing appropriate PKC isoforms as described for Example 1. Briefly, the protein cytoplasmic extracts were separated by electrophoresis and transferred onto nitrocellulose membranes by standard Western blotting procedures. The bands on the Western blots were detected with matching primary antibodies and alkaline phosphatase conjugated secondary antibody. The bands were then scanned and the relative density measurements obtained.
This procedure to assess the binding characteristics of the PREs is based on competition binding of the PRE with the primary anti-isoform PKC specific antibodies. The lower the measured band density, the greater the binding of the PRE to the PKC isoform. The PREs were added at 10 and 20 times (10×, 20×) the primary antibody concentration, according to classical competition between antigenic peptide and primary antibody. The following cell lines (obtained from the ATCC) were used: H661—NCI human lung carcinoma NSCLC; MDAMB231—human highly invasive breast cancer cell line from pleural effusion; LS180—human colon adenocarcinoma; LnCAP—human prostate adenocarcinoma; CCD16Lu—human lung fibroblasts; Du145—human prostate carcinoma brain metastasis, and T24—human bladder carcinoma.
In these cases, the 20× band density figures relative to control and 10× values were reliable.

| Molecule | Affinity for PKC isoform βI [1] | Affinity for PKC isoform δ [2] | also measured |
| --- | --- | --- | --- |
| Ac-KDAQNLI-NH2 [PRE 12] | — | — |  |
| Ac-isigilqnadk-NH2 (Ac-[dI][dS][dI]G[dI][dL][dQ][dN][dA][dD][dK]-NH2; SMILES CC[C@@H](C)[C@@H](NC(C)=O)C(=O)N[C@H](CO)C(=O)N[C@@H](C(=O)NCC(=O)N[C@@H](C(=O)N[C@H](CC(C)C)C(=O)N[C@H](CCC(N)=O)C(=O)N[C@H](CC(N)=O)C(=O)N[C@H](C)C(=O)N[C@H](CC(=O)O)C(=O)N[C@H](CCCCN)C(N)=O)[C@H](C)CC)[C@H](C)CC) [PRE 9] | L | H | calculated binding capacity (100-% n, DMSO apparent binding subtracted) ([1]; PRE 50 μM, purified PKC-βI): 11.53%; calculated binding capacity (100-% n, DMSO apparent binding subtracted) ([1]; PRE 100 μM, purified PKC-βI): 8.82%; calculated binding capacity (100-% n, DMSO apparent binding subtracted) ([1]; PRE 200 μM, purified PKC-βI): 5.72% |
| ILEDKGGDAQNLIGISI [PRE 8] | — | L |  |
| Ac-RDAQNLIGISI-NH2 [PRE 11] | — | — |  |
| CC[C@H](C)[C@H](NC(=O)[C@H](CO)NC(=O)[C@@H](NC(=O)CNC(=O)[C@@H](NC(=O)[C@H](CC(C)C)NC(=O)[C@H](CC(N)=O)NC(=O)[C@H](CCC(N)=O)NC(=O)[C@H](C)NC(=O)[C@H](CC(=O)O)NC(=O)[C@H](CCCCN)NC(C)=O)[C@@H](C)CC)[C@@H](C)CC)C(N)=O [PRE 4, Ac-KDAQNLIGISI-NH2] (Ac-KDAQNLIGISI-NH2) | L | — |  |

The next lines start with results.

| Affinity for PKC isoform βI [1] | Affinity for PKC isoform δ [2] | Molecule | also measured |
| --- | --- | --- | --- |
| — | H | Ac-ISIGILNQADK-NH2 [PRE 10] |  |
| H | H | CC[C@H](C)[C@H](NC(=O)[C@H](CO)NC(=O)[C@@H](NC(=O)CNC(=O)[C@@H](NC(=O)[C@H](CC(C)C)NC(=O)[C@H](CC(N)=O)NC(=O)[C@H](CCC(N)=O)NC(=O)[C@H](C)NC(=O)[C@H](CC(=O)O)NC(=O)CNC(=O)CNC(=O)[C@H](CCCCN)NC(=O)[C@@H](NC(=O)[C@H](CCC(=O)O)NC(=O)[C@H](CCC(N)=O)NC(=O)[C@@H](NC(=O)CNC(=O)[C@H](CCCCN)NC(=O)[C@H](C)NC(C)=O)[C@@H](C)CC)C(C)C)[C@@H](C)CC)[C@@H](C)CC)C(N)=O [PRE 3] (Ac-AKGIQEVKGGDAQNLIGISI-NH2) |  |
| — | L | Ac-ISIGILQNADK-NH2 (not fully specified; printed as Ac-ISIGILQNADK-NH2) [PRE 7] | calculated binding capacity (100-% n, DMSO apparent binding subtracted) ([1]; PRE 50 μM, purified PKC-βI): 2.10% |
| — | — | Ac-RDAQNLI-NH2 [PRE 13] |  |
| H | — | RRKKGGKDFVVKR [PRE 1] |  |
| L | M/H | Ac-KDANQLIGISI-NH2 [PRE 6] |  |
| — | — | CC[C@H](C)[C@H](NC(=O)[C@H](CO)NC(=O)[C@@H](NC(=O)CNC(=O)[C@@H](NC(=O)[C@H](CC(C)C)NC(=O)[C@H](CC(N)=O)NC(=O)[C@H](CCC(N)=O)NC(=O)[C@H](C)NC(=O)[C@H](CC(=O)O)NC(=O)[C@H](CCCCN)NC(=O)CNC(=O)CNC(=O)[C@H](CCCCN)NC(=O)[C@@H](NC(=O)[C@H](CCC(=O)O)NC(=O)[C@H](CCC(N)=O)NC(=O)[C@@H](NC(=O)CNC(=O)[C@H](CCCCN)NC(=O)[C@H](C)NC(C)=O)[C@@H](C)CC)C(C)C)[C@@H](C)CC)[C@@H](C)CC)C(N)=O [PRE 5] (Ac-AKGIQEVKGGKDAQNLIGISI-NH2) | inhibition at 50 µM ([1]; PRE 50 μM, purified PKC-βI, read-out: calculated binding capacity (100-% n, DMSO apparent binding subtracted)): 0%; inhibition at 100 µM ([1]; PRE 100 μM, purified PKC-βI, read-out: calculated binding capacity (100-% n, DMSO apparent binding subtracted)): 0%; inhibition at 200 µM ([1]; PRE 200 μM, purified PKC-βI, read-out: calculated binding capacity (100-% n, DMSO apparent binding subtracted)): 0% |
